Experimental data published in publication PMC8809517, “Cofactor-independent RNA editing by a synthetic S-type PPR protein”.

T1: GFP-9S library array, motif 4 ND N98R;D124R (synthetic construct, N98R;D124R)
T1 chain: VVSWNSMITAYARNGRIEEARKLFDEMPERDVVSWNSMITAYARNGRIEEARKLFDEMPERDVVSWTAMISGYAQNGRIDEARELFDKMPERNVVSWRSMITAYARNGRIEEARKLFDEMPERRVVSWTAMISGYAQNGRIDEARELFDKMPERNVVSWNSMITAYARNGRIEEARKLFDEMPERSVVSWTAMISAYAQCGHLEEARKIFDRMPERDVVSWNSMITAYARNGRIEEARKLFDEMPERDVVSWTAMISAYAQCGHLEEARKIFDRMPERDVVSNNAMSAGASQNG

T2: GFP-9S library array, motif 4 ND N98G (synthetic construct, N98G)
T2 chain: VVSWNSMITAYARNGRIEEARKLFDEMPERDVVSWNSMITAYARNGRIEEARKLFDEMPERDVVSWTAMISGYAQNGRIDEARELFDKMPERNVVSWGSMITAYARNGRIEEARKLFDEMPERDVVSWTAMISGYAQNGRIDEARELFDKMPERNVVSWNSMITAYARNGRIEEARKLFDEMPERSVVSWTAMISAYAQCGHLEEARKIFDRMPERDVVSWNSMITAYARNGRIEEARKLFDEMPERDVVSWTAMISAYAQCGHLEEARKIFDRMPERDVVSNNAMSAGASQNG

T3: GFP-9S library array, motif 4 ND (synthetic construct)
T3 chain: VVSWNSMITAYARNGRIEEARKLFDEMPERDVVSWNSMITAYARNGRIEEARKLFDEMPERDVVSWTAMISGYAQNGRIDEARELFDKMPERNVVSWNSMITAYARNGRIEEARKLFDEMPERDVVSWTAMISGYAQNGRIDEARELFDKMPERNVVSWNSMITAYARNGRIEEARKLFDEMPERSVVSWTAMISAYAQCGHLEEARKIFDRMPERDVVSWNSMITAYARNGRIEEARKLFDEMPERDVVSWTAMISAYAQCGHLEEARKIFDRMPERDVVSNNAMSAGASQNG

T4: GFP-9S library array, motif 4 ND N98I;D124L (synthetic construct, N98I;D124L)
T4 chain: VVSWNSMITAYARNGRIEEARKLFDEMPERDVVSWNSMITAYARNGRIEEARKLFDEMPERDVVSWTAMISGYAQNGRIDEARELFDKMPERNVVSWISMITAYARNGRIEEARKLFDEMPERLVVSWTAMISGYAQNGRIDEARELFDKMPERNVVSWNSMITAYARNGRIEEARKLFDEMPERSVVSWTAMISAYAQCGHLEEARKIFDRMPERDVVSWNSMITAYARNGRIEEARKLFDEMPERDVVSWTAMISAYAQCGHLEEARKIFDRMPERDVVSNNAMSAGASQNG

T5: GFP-9S library array, motif 4 ND N98T;D124N (synthetic construct, N98T;D124N)
T5 chain: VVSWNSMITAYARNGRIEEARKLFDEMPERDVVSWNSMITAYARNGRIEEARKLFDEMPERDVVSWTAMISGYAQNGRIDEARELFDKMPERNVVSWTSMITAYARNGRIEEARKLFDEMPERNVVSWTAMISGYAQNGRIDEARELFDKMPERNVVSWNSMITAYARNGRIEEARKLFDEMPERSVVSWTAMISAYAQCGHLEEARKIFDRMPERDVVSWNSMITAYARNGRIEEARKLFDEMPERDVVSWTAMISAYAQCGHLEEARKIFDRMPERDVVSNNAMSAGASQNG


Columns and labels:
Experiment in all cases: high-throughput RNA pulldown from lysate on Ni-NTA beads; HRP: 50 mM Tris pH 8, 150 mM NaCl, 1 mM beta-mercaptoethanol, 50 ug/ml BSA, 3 ug/ml yeast RNA, 0.5% heparin; ITC and FP: Tris pH 8, 200 mM KCl, 5% glycerol; MST: 50 mM Tris pH 8, 200 mM NaCl, 1 mM DTT, BSA, heparin, 0.05% Tween 20
Settings in all cases: tags: N-terminal His-eGFP
[1] = target: T1, GFP-9S library array, motif 4 ND …
[2] = target: T2, GFP-9S library array, motif 4 ND N98G
[3] = target: T3, GFP-9S library array, motif 4 ND
[4] = target: T4, GFP-9S library array, motif 4 ND …
[5] = target: T5, GFP-9S library array, motif 4 ND …

Binder	Kd ([1]; label: 5' Cy5)	Kd ([2]; label: 5' Cy5)	Kd ([3]; label: 5' Cy5)	Kd ([4]; label: 5' Cy5)	Kd ([5]; label: 5' Cy5)	Kd ([1]; label: 5' IRDye 800CW)	Kd ([2]; label: 5' IRDye 800CW)	Kd ([3]; label: 5' IRDye 800CW)	Kd ([4]; label: 5' IRDye 800CW)	Kd ([5]; label: 5' IRDye 800CW)
AUUACACGUGA (ssRNA) [Cy5-rpoA]	97.6 nM	402 nM	19 nM	106 nM	59.8 nM					
AUUAAACGUGA (ssRNA) [IR-rpoA-A]						82 nM	495 nM	86.8 nM	343 nM	8.35 nM
AUUAGACGUGA (ssRNA) [Cy5-rpoA-G]	53.3 nM	32.5 nM	276 nM	128 nM	59 nM					
AUUAUACGUGA (ssRNA) [IR-rpoA-U]						97.9 nM	408 nM	6.27 nM	202 nM	53.3 nM
